Experimental data: article PMC11169542, “A probe for NIR-II imaging and multimodal analysis of early Alzheimer’s disease by targeting CTGF” (Nature Communications, 2024)
Several values for one entry are separate records, joined by “and”; a condition that tells them apart may be missing. Equal values may be shown once. Ends that are not written are not given here.

Legend:
CTGF [1] = biological target: T1, CTGF (Homo sapiens, UniProt P29279); test: Affinity between DGC/DAG and CTGF protein by SPR (BIAcore); format: binding; parameters: purchased Abcam ab283457; details: ratio of SPR KD values
T1 sequence (P29279 27-349): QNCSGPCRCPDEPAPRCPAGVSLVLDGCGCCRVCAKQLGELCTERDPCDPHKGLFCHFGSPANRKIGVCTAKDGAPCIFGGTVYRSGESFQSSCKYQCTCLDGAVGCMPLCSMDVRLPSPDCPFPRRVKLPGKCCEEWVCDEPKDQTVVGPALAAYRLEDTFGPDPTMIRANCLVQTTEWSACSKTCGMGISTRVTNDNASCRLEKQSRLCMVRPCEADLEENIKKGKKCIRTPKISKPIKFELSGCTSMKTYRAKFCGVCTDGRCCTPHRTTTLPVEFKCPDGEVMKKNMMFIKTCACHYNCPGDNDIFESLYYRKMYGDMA
Experimental: Real-time binding and kinetic analyses by surface plasmon resonance (SPR) were performed on a BIAcore 8 K^+ instrument (Pharmacia Biosensor AB). The recombinant Human CTGF protein (Abcam, Cat#ab283457) was immobilized on a CM5 chip by using an amine coupling kit, and the remaining coupling sites were blocked with ethanolamine. The eluent contained PBS and 0.005% Tween 20. Binding was evaluated over a range of DAG (0.5–16 μM) or DGC (0.01– 0.16 μM) concentrations at 25 °C. Kinetic parameters were further determined with Biacore Insight Evaluation 3.0 software.

CTGF [2] = test: DGC labelling of CTGF in cells by fluorescence imaging (CLSM); format: cell-based; details: for FL Intensity of DGC per cell: 55 μM DGC 60 min, CLSM
Experimental: The U87MG, SH-SY5Y, and CTX TNA2 cells in confocal dishes were fixed with 4% paraformaldehyde solution (PFA) for 30 min. Next, the cells were washed with cold PBS three times, and 3% BSA in PBS solution was introduced to the cells to block the nonspecific recognition sites. Then, the cells were incubated with 55 μM DGC for 60 min at room temperature. The control cells were only incubated with a culture medium. Next, the nuclei were stained with 5 μg/mL DAPI solution for 5 min. Finally, the cells were observed by a confocal laser scanning microscope (CLSM, PerkinElmer, USA). The fluorescence intensity of each cell was measured by ImageJ software, the red channel was extracted by clicking Split Channels, and the red fluorescent region, except the nucleus was selected by Freehand selections. Then the average fluorescence intensity in this region was measured and recorded for statistical analysis.
To further determine the specificity of DGC to CTGF, immunofluorescence staining was performed with CTGF antibodies to determine the location of CTGF in cells. First, U87MG cells in confocal dishes were fixed with 4% PFA for 30 min. Next, the cells were washed with PBS three times, and 3% bovine serum albumin (BSA) in PBS solution. Then, the cells were incubated with CTGF antibody (dilution 1:100, Abcam, Cat#ab6992) in PBS for 4 h at 4 °C, and FITC-labeled Goat Anti-Rabbit IgG (H + L) (1: dilution 1:200, Bioss, Cat#bs-0370R-FITC) in 3% BSA solution was added to the cells for another 30 min at 37 °C in the dark. Subsequently, 55 μM DGC were incubated with the cells for 1 h. Finally, the cells were stained with DAPI for 5 min and washed with PBS before the CLSM image (Nikon).
Moreover, a binding site blocking study was performed to confirm the specificity of the DGC to CTGF. First, U87MG cells were fixed with 4% PFA. Then, a PBS solution containing 3% BSA was used to block the nonspecific recognition sites for 30 min. After BSA blocking, the cells were pre-incubated with 5 mM of free DAG peptide for 1 h, followed by 55 μM DGC added for 60 min. Then, DAPI (5 μg/mL) was added to U87MG cells to stain the nuclei. Finally, the cells were imaged by the CLSM system.

[3] = Pharmacokinetic study of DGC in C57BL/6J mice (serum Au by ICP-MS); format: in vivo; details: for AUC(0-t) (AUClast) / AUC(0-∞) (AUCINF_obs) / AµMC(0-t) (AUMClast) / AµMC(0-∞) (AUMCINF_obs) / Cmax / MRT(0-t) (MRTlast) / MRT(0-∞) (MRTINF_obs) / Vz/F (Vz_obs) / elimination half-life t1/2z (HL_Lambda_z) / CLz/F (Cl_obs) / Tmax: 20 mg/kg i.v. single dose, n=3; for AUC(0-t) (AUClast) / AUC(0-∞) (AUCINF_obs) / AµMC(0-t) (AUMClast) / AµMC(0-∞) (AUMCINF_obs) / Cmax / MRT(0-t) (MRTlast) / MRT(0-∞) (MRTINF_obs) / Vz/F (Vz_obs) / elimination half-life t1/2z (HL_Lambda_z) / CLz/F (Cl_obs) / Tmax / Clast / C0 / Cmax_D / Lambda_z: serum Au by ICP-MS; for AUC(0-t) (AUClast) / AUC(0-∞) (AUCINF_obs) / AµMC(0-t) (AUMClast) / AµMC(0-∞) (AUMCINF_obs) / Cmax / MRT(0-t) (MRTlast) / MRT(0-∞) (MRTINF_obs) / Vz/F (Vz_obs) / elimination half-life t1/2z (HL_Lambda_z) / CLz/F (Cl_obs) / Tmax / Clast_pred / AUCINF_D_obs / AUCINF_D_pred / AUCINF_pred / AUCall / AUClast_D / AUMCINF_pred / Cl_pred / MRTINF_pred / Vss_obs / Vss_pred / Vz_pred / C0 / Cmax_D / Lambda_z: WinNonlin; for CLz/F (Cl_obs) / Tmax: 20 mg/kg; for Clast_pred / Clast / AUCINF_D_obs / AUCINF_D_pred / AUCINF_pred / AUCall / AUClast_D / AUMCINF_pred / Cl_pred / MRTINF_pred / Vss_obs / Vss_pred / Vz_pred / C0 / Cmax_D / Lambda_z: 20 mg/kg i.v.; for Clast_pred / Clast: Tlast 48 h
Experimental: Male and female mice were given a single intravenous dose of 20 mg/ kg (n = 3). The blood of posterior orbital venous plexus was collected at continuous time points (0.083, 0.25, 0.5, 1, 2, 4, 8, 10, 12, 24, and 48 h) and the serum was rapid separation by centrifugation (1200×g at 4 °C, 10 min). Au content in the serum sample was detected by ICP-MS. The pharmacokinetic index was obtained by using winnonlin8.4 […] model.

- binding affinity of DGC to CTGF relative to free DAG peptide (CTGF [1]): more than 1000 times
Substance: DGC: CTGF-targeting peptide-coated gold nanocluster: one Au26 gold nanocluster coated by eight DAG cyclic peptides, NIR-II and red fluorescence (CDAGRKQKC; also: cyclic peptide, ring not given here, eight peptides on one Au26 nanocluster via Cys Au-S bonds)
- labelling of CTGF after blocking with free DAG peptide (CTGF [2]; U87MG cells pre-incubated with 5 mM free DAG 1 h, then 55 μM DGC 60 min): cannot label CTGF in cells pre-blocked by free DAG peptides
- co-localization coefficient (Pearson's correlation coefficient) of DGC and CTGF antibody (CTGF [2]; U87MG cells, ImageJ): 0.946
- FL Intensity of DGC per cell (CTGF [2]; fixed CTX TNA2 cells, replicate 1): 5.779
- FL Intensity of DGC per cell (CTGF [2]; fixed CTX TNA2 cells, replicate 2): 3.821
- FL Intensity of DGC per cell (CTGF [2]; fixed CTX TNA2 cells, replicate 3): 8.33
- FL Intensity of DGC per cell (CTGF [2]; fixed SH-SY5Y cells, replicate 1): 14.6594
- FL Intensity of DGC per cell (CTGF [2]; fixed SH-SY5Y cells, replicate 2): 16.8684
- FL Intensity of DGC per cell (CTGF [2]; fixed SH-SY5Y cells, replicate 3): 12.4094
- FL Intensity of DGC per cell (CTGF [2]; fixed U87MG cells, replicate 1): 36.9955
- FL Intensity of DGC per cell (CTGF [2]; fixed U87MG cells, replicate 2): 33.5045
- FL Intensity of DGC per cell (CTGF [2]; fixed U87MG cells, replicate 3): 35.4955
- AUC(0-t) (AUClast) ([3]; female C57BL/6J mice): 650.995 µg·h/mL
- AUC(0-∞) (AUCINF_obs) ([3]; female C57BL/6J mice): 779.367 µg·h/mL
- AµMC(0-t) (AUMClast) ([3]; female C57BL/6J mice): 10136.5 h*h*mg/L
- AµMC(0-∞) (AUMCINF_obs) ([3]; female C57BL/6J mice): 19964.5 h*h*mg/L
- Cmax ([3]; female C57BL/6J mice): 191.26 µg/mL
- MRT(0-t) (MRTlast) ([3]; female C57BL/6J mice): 15.5708 h
- MRT(0-∞) (MRTINF_obs) ([3]; female C57BL/6J mice): 25.6162 h
- Vz/F (Vz_obs) ([3]; female C57BL/6J mice): 0.7329 L/kg
- elimination half-life t1/2z (HL_Lambda_z) ([3]; female C57BL/6J mice): 19.7951 h
- CLz/F (Cl_obs) ([3]; female C57BL/6J mice): 0.5 mL/min/kg and 0.4277 mL/min/kg
- Tmax ([3]; female C57BL/6J mice): 4.8 min and 4.98 min
- Clast_pred ([3]; female C57BL/6J mice): 4.584 µg/mL
- Clast ([3]; female C57BL/6J mice): 4.495 µg/mL
- AUCINF_D_obs ([3]; female C57BL/6J mice): 38.9684 kg·mg·h/L/mg
- AUCINF_D_pred ([3]; female C57BL/6J mice): 39.095 kg·mg·h/L/mg
- AUCINF_pred ([3]; female C57BL/6J mice): 781.9 µg·h/mL
- AUCall ([3]; female C57BL/6J mice): 650.995 µg·h/mL
- AUClast_D ([3]; female C57BL/6J mice): 32.5498 kg·mg·h/L/mg
- AUMCINF_pred ([3]; female C57BL/6J mice): 20158.4 h*h*mg/L
- Cl_pred ([3]; female C57BL/6J mice): 0.4263 mL/min/kg
- MRTINF_pred ([3]; female C57BL/6J mice): 25.7813 h
- Vss_obs ([3]; female C57BL/6J mice): 0.6574 L/kg
- Vss_pred ([3]; female C57BL/6J mice): 0.6595 L/kg
- Vz_pred ([3]; female C57BL/6J mice): 0.7305 L/kg
- C0 ([3]; female C57BL/6J mice): 267.189 µg/mL
- Cmax_D ([3]; female C57BL/6J mice): 9.563 kg·mg/L/mg
- Lambda_z ([3]; female C57BL/6J mice): 0.03502 h⁻¹
- elimination half-life (t1/2z) ([3]; in mice, sex not specified): about 20 h
- AUC(0-t) (AUClast) ([3]; male C57BL/6J mice): 615.219 µg·h/mL
- AUC(0-∞) (AUCINF_obs) ([3]; male C57BL/6J mice): 735.649 µg·h/mL
- AµMC(0-t) (AUMClast) ([3]; male C57BL/6J mice): 8803.77 h*h*mg/L
- AµMC(0-∞) (AUMCINF_obs) ([3]; male C57BL/6J mice): 18299.4 h*h*mg/L
- Cmax ([3]; male C57BL/6J mice): 172.688 µg/mL
- MRT(0-t) (MRTlast) ([3]; male C57BL/6J mice): 14.31 h
- MRT(0-∞) (MRTINF_obs) ([3]; male C57BL/6J mice): 24.8751 h
- Vz/F (Vz_obs) ([3]; male C57BL/6J mice): 0.8386 L/kg
- elimination half-life t1/2z (HL_Lambda_z) ([3]; male C57BL/6J mice): 21.3817 h
- CLz/F (Cl_obs) ([3]; male C57BL/6J mice): 0.5 mL/min/kg and 0.4532 mL/min/kg
- Tmax ([3]; male C57BL/6J mice): 4.8 min and 4.98 min
- Clast_pred ([3]; male C57BL/6J mice): 3.998 µg/mL
- Clast ([3]; male C57BL/6J mice): 3.904 µg/mL
- AUCINF_D_obs ([3]; male C57BL/6J mice): 36.7825 kg·mg·h/L/mg
- AUCINF_D_pred ([3]; male C57BL/6J mice): 36.9275 kg·mg·h/L/mg
- AUCINF_pred ([3]; male C57BL/6J mice): 738.551 µg·h/mL
- AUCall ([3]; male C57BL/6J mice): 615.219 µg·h/mL
- AUClast_D ([3]; male C57BL/6J mice): 30.7609 kg·mg·h/L/mg
- AUMCINF_pred ([3]; male C57BL/6J mice): 18528.2 h*h*mg/L
- Cl_pred ([3]; male C57BL/6J mice): 0.4513 mL/min/kg
- MRTINF_pred ([3]; male C57BL/6J mice): 25.0872 h
- Vss_obs ([3]; male C57BL/6J mice): 0.6763 L/kg
- Vss_pred ([3]; male C57BL/6J mice): 0.6794 L/kg
- Vz_pred ([3]; male C57BL/6J mice): 0.8353 L/kg
- C0 ([3]; male C57BL/6J mice): 204.126 µg/mL
- Cmax_D ([3]; male C57BL/6J mice): 8.634 kg·mg/L/mg
- Lambda_z ([3]; male C57BL/6J mice): 0.03242 h⁻¹
